# Where no end group is shown, it is not given here.
# B1: Peptide-60 (peptide)
# peptide: VDFCNLYHWPICAI
# notes: mask peptide for the TROP2 Fab
# B2: Peptide-8 (peptide)
# peptide: VDFCGLYHWPICYQ
# notes: as for B1
# B3: Peptide-12 (peptide)
# peptide: PDFCAVYRWPICYQ
# modifications: cysteine pairing not given here; also: biotinylated (site not given here)
# B4: Peptide-1 (peptide)
# peptide: IDFCAMYQWPICDT
# modifications: cysteine pairing not given here; also: biotinylated (site not given here)
# B5: Peptide-10 (peptide)
# peptide: IDFCAIYQWPVCRS
# modifications: cysteine pairing not given here; also: biotinylated (site not given here)
# B6: Peptide-2 (peptide)
# peptide: IDFCAVYKWPVCQV
# modifications: cysteine pairing not given here; also: biotinylated (site not given here)
# B7: Peptide-18 (peptide)
# peptide: MDFCQIYDWPICRL
# modifications: cysteine pairing not given here; also: biotinylated (site not given here)
# B8: Peptide-14 (peptide)
# peptide: LDFCKIYDWPICHL
# modifications: cysteine pairing not given here; also: biotinylated (site not given here)
# B9: Peptide-5 (peptide)
# peptide: VDFCKLYNWPVCQT
# modifications: cysteine pairing not given here; also: biotinylated, site not given here
# B10: Peptide-4 (peptide)
# peptide: VDFCKIYAWPICGS
# modifications: cysteine pairing not given here; also: biotinylated, site not given here
# B11: Peptide-29 (peptide)
# peptide: SYLVCVKNVYCWTA
# modifications: cysteine pairing not given here; also: biotinylated, site not given here
# B12: Peptide-13 (peptide)
# peptide: VDFCELYRWPICNS
# modifications: cysteine pairing not given here; also: biotinylated (site not given here)
# B13: Peptide-17 (peptide)
# peptide: IDFCLLYDWPICGR
# modifications: cysteine pairing not given here; also: biotinylated (site not given here)
# B14: Peptide-6 (peptide)
# peptide: IDFCLIYNWPVCDT
# modifications: cysteine pairing not given here; also: biotinylated, site not given here
# Biological target: T1, TBD-1 wt (anti-TROP2 Fab, hRS7)
# T1 construct: non-mutated Fab
# Assay: competition ELISA, Fab on captured TROP2
row,IC50 [nM],Binder
1,470,B1

# Biological target: T2, TBD-6 (LC I93A)
# T2 construct: anti-TROP2 Fab, CDR3 LC alanine mutant
# Assay: competition ELISA, Fab on captured TROP2
row,IC50 [nM],Binder
1,760,B2
2,670,B1

# Biological target: T3, TBD-11 (HC R98A)
# T3 construct: anti-TROP2 Fab, CDR3 HC alanine mutant
# Assay: competition ELISA, Fab on captured TROP2
row,IC50 [nM],Binder
1,940,B2
2,2560,B1

# Biological target: T4, TBD-17 (HC S104A)
# T4 construct: anti-TROP2 Fab, CDR3 HC alanine mutant
# Assay: competition ELISA, Fab on captured TROP2
row,IC50 [nM],Binder
1,1250,B2
2,2090,B1

# Biological target: T5, TBD-21 (HC F108A)
# T5 construct: anti-TROP2 Fab, CDR3 HC alanine mutant
# Assay: competition ELISA, Fab on captured TROP2
row,IC50 [µM],Binder
1,2.12,B2
2,5.45,B1

# Biological target: T6, TBD-22 (HC D109A)
# T6 construct: anti-TROP2 Fab, CDR3 HC alanine mutant
# Assay: competition ELISA, Fab on captured TROP2
row,IC50 [nM],Binder
1,100,B2
2,160,B1

# Biological target: T7, TBD-1 wt
# T7 construct: Fab; the heavy chain entry is VH-CH1; also called wild-type anti-TROP2 Fab (hRS7); TROP2 Fab
# Assay: competition ELISA, peptide vs Fab binding to captured biotin-TROP2
row,IC50 [nM],Binder
1,460,B3
2,780,B4
3,1220,B5
4,2230,B6
5,1270,B7
6,2190,B8
7,1590,B9
8,460,B10
9,920,B11
10,1010,B12
11,430,B13

# Biological target: T8, TBD-6 (LC I93A)
# T8 construct: Fab; also called LC I93A mutant
# Assay: as above
row,IC50 [nM],Binder
1,1460,B3
2,350,B4
3,620,B5
4,1100,B6
5,6110,B7
6,1860,B14
7,1540,B8
8,1050,B9
9,400,B10
10,800,B11
11,970,B12
12,760,B13

# Biological target: T9, TBD-11 (HC R98A)
# T9 construct: Fab; also called HC R98A mutant
# Assay: as above
row,IC50 [µM],Binder
1,0.85,B3
2,2.49,B4
3,4.04,B5
4,5.85,B6
5,3.96,B7
6,8.84,B14
7,3.42,B8
8,7.23,B9
9,3.24,B10
10,9.17,B11
11,2.68,B12
12,1.95,B13

# Biological target: T10, TBD-17 (HC S104A)
# T10 construct: Fab; also called HC S104A mutant
# Assay: as above
row,IC50 [nM],Binder
1,2230,B3
2,1020,B4
3,1520,B5
4,2080,B6
5,7080,B7
6,3090,B14
7,5720,B8
8,1790,B9
9,2040,B10
10,1110,B11
11,2990,B12
12,2070,B13

# Biological target: T11, TBD-21 (HC F108A)
# T11 construct: Fab; also called HC F108A mutant
# Assay: as above
row,IC50 [µM],Binder
1,2.24,B3
2,2.89,B4
3,2.9,B5
4,5.88,B6
5,7.56,B7
6,7.94,B14
7,6.92,B8
8,7.16,B9
9,3.3,B10
10,1.49,B11
11,3.2,B12
12,2.94,B13

# Biological target: T12, TBD-22 (HC D109A)
# T12 construct: Fab; also called HC D109A mutant
# Assay: as above
row,IC50 [nM],Binder
1,70,B3
2,70,B4
3,60,B5
4,160,B6
5,350,B7
6,90,B14
7,190,B8
8,100,B9
9,130,B10
10,33600,B11
11,200,B12
12,70,B13

# Source: patent publication US20230357429A1 (JANUX THERAPEUTICS, published 2023)
